From US20100196361A1, “Method of inhibition of vascular development using an antibody” (DYAX CORP., priority 2003, published 2010)

T1: Tie1-EpoR chimeric receptor (UniProt P14753+P35590)
T1 construct: PCR amplified extracellular part of human Tie1 (bp 37-2316 of X60975); expressed in transfected cells
T1 sequence (P35590+P14753 with tags, fused parts or gaps): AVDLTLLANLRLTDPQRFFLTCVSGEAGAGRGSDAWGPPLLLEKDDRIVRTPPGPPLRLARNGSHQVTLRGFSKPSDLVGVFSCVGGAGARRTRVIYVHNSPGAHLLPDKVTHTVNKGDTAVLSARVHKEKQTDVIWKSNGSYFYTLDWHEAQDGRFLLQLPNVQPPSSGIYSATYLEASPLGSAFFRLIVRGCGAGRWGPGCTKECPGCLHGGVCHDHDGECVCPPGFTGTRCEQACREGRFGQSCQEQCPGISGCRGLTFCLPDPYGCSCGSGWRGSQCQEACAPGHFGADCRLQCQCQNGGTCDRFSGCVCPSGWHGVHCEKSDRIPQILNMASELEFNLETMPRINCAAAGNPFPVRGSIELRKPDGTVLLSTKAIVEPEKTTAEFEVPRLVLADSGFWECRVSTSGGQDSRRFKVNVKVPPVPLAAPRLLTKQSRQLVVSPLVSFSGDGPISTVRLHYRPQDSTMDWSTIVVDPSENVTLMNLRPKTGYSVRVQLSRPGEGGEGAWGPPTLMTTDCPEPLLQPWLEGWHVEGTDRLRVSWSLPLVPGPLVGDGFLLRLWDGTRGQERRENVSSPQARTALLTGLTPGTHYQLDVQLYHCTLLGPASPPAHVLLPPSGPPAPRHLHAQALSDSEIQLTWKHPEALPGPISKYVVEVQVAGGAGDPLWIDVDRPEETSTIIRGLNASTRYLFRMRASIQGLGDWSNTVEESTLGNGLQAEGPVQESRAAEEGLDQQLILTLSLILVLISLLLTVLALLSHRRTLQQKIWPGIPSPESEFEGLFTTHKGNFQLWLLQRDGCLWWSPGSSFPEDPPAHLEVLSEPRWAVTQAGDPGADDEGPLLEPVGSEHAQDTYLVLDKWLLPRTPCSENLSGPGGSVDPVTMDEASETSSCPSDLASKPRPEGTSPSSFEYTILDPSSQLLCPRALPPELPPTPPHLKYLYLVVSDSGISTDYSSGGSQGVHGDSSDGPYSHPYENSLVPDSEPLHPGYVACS

B1: A2: anti-Tie1 antibody clone; variable domains in FIGS. 20A and 20B (antibody, V domains shown)
VH: EVQLLESGGGLVQPGGSLRLSCAASGFTFSRYTMMWVRQAPGKGLEWVSGIYPSGGVTLYADSVKGRFTISRDNSKNTLYLQMNSLRAEDTAVYYCARVNYYDSSGYGPIAPGLDYWGQGTLVTVSSASTKGPSVFP
VL: HSAQDIQMTQSPGTLSLSPGERATLSCRASRSVIISYVAWYQQKPGQAPRLLIYGASTRATGIPDRFSGSGSGTDFTLTISRLEPEDFAVYFCQLYGRSPRIIFGQGTRLEIK
B2: A10: anti-Tie1 antibody clone; variable domains in FIGS. 21A and 21B (antibody, V domains shown)
VH: EVQLLESGGGLVQPGGSLRLSCAASGFTFSNYVMVWVRQAPGKGLEWVSGIYPSGGHTKYADSVKGRFTISRDNSKNTLYLQMNSLRAEDTAVYYCARVNYYDSSGYGPIAPGLDYWGQGTLV
VL: HSAQDIQMTQSPGTLSLSPGERATLFCRASQRVTSNSLAWYQQRPGQAPRLLIYDASTRATGIPDRFSGSGSGRDFTLTISRLEPEDFAVYYCQRYGSSVLYSFGQGTKLEIT
B3: P-B1: anti-Tie1 antibody clone; variable domains in FIGS. 11A and 11B (antibody, V domains shown)
VH: EVQLLESGGGLVQPGGSLRLSCAASGFTFSRYPMVWVRQAPGKGLEWVSVISPSGGQTFYADSVKGRFTISRDNSKNTLYLQMNSLRAEDTAVYYCARGVLTTAFDIWGQGTMVTVSSASTKGPSVFPLAPSSK
VL: QDIQMTQSPSSLSASVGDRVTITCRASQNINSYLNWYQQKPGQAPKLLIYAASNLETAVPSRFSGSGSGTDFTLTISSLQPEDFATYYCQQFNTYPLTFGGG
B4: P-B3: anti-Tie1 antibody clone; variable domains in FIGS. 12A and 12B (antibody, V domains shown)
VH: EVQLLESGGGLVQPGGSLRLSCAASGFTFSRYGMHWVRQAPGKGLEWVSVISPSGGMTYYADSVKGRFTISRDNTKNTLYLQMNSLRAEDTAVYYCARVGATGPFDIWGQGTMVTVSSASTKGPSVFPLAP
VL: QDIQMTQSPATLSLSPGERATLSCRASQSVSTYLAWYQQKPGQAPRLLIYDASNRATGIPGRFSGSGSGTDFTLTISSLEAEDFAVYYCQQRSSWPITFGQG
B5: P-C6: anti-Tie1 antibody clone; variable domains in FIGS. 13A and 13B (antibody, V domains shown)
VH: EVQLLESGGGLVQPGGSLRLSCAASGFTFSHYGMTWVRQAPGKGLEWVSVISPSGGQTGYADSVKGRFTISRDNSKNTLYLQMNSLRAEDTAVYYCAGGGYAAFDYWGQGTLVTVSSASTKGPSVFPLAPSSKSTSGGTAALG
VL: QDIQMTQSPATLSLSPGERATLSCRASQSVSSYLAWYQQKPGQAPRLLIYDASNRATGIPARFSGSGSGTDFTLTISSLEPEDFAVYYCQQRSNWPLTFGGG
B6: C7: anti-Tie1 antibody clone; variable domains in FIGS. 25A and 25B (antibody, V domains shown)
VH: EVQLLESGGGLVQPGGSLRLSCAASGFTFSRYVMYWVRQAPGKGLEWVSVIYPSGGATYYADSVKGRFTISRDNSKNTLYLQMNSLRAEDTAVYYCARRGSSGAFDYWGQGTLVTVSSASTKGPSVFP
VL: HSAQSVLTQPASVSGSPGQSITISCTGTSSDIGRYNYASWYQQRPGKSPKLLIYEVSDRPSGVSNRFSGSKSGNTASLIISGLQAEDEADYYCSSYSSTNSLQVVFGGGTKLSVLGQPKAAPSVTLFPPSSEELQANKATLVCL
B7: M0044B08: Tie1-binding antibody; LC SEQ ID NO:180, HC SEQ ID NO:182 (antibody, V domains shown)
VH: EVQLLESGGGLVQPGGSLRLSCAASGFTFSAYGMGWVRQAPGKGLEWVSVISPSGGQTSYADSVKGRFTISRDNSKNTLYLQMNSLRAEDTALYYCAGGDRYGPLHYWGQGTLVTVSS
VL: QDIQMTQSPSFLSASVGDRVTISCRASQYISIYLNWYQQRPGEAPKLLINAASSLQSGDPSRFSGSGSGTDFTLTINSLQPDDFATYYCQQYKSYPLTFGEGTKVEIK
modifications: Antibody
B8: M0056G08: Tie1-binding antibody; LC SEQ ID NO:568, HC SEQ ID NO:570 (antibody, V domains shown)
VH: EVQLLESGGGLVQPGGSLRLSCAASGFTFSHYGMWWVRQAPGKGLEWVSVISPSGGQTNYADSVKGRFTISRDNSKNTLYLQMNSLRAEDTAVYYCAKGQIHGGNLASWGQGTLVTVSS
VL: QDIQMTQSPGTLSLSPGERATLSCRASQSISSSYLAWYQQKPGQAPRLLLYGTSNRATGIPDRFSGSGSGTDFTLTISRLEPEDFALYYCQQRYKWPLTFGPGTKVDFK
modifications: Antibody
B9: M0045B03: Tie1-binding antibody; LC SEQ ID NO:260, HC SEQ ID NO:262 (antibody, V domains shown)
VH: EVQLLESGGGLVQPGGSLRLSCAASGFTFSQYPMIWVRQAPGKGLEWVSVISPSGGHTSYADSVKGRFTISRDNSKNTLYLQMNSLRAEDTAVYYCARIQYYGGAFDIWGQGKMVTVSS
VL: QDIQMTQSPDTLSLSPGERATLSCRASQSISRYLAWYQQRPGQAPSLLIYDASERAAGIPARFSGSGSGTDFTLTISSLEPEDFAVYYCQQRGNWPLTFGGGTKVDIR
modifications: Antibody
B10: M0053F04: Tie1-binding antibody; LC SEQ ID NO:392, HC SEQ ID NO:394 (antibody, V domains shown)
VH: EVQLLESGGGLVQPGGSLRLSCAASGFTFSGYGMYWVRQAPGKGLEWVSVISPSGGYTHYADSVKGRFTISRDNSKNTLYLQMNSLRAEDTAVYYCARAYSSGWYLDYWGQGTLVTVSS
VL: QDIQMTQSPATLSLSPGERATLSCRASQSVSSYLAWYQQKPGQAPRLLIYDTSNRATGIPARFSGSGSGTDFTLTISSLEPEDFAVYYCQQRSNWPITFGQGTRLEIK
modifications: Antibody

Molecular target: T1, Tie1-EpoR chimeric receptor
Experiment: BaF3 bioassay (Tie1/EpoR chimeric BaF3 cell assay)
Type: cell-based, human
Conditions: 100 ng/ml E3 IgG together with 100 (1:1) or 500 (1:5) ng/ml test antibody
Text: BaF3 bioassay. To generate Tie1-EpoR expressing BaF3 cells for the bioassay, BaF3 pre-B cells were stably transfected with a nucleic acid that expresses chimeric receptor containing the extracellular domain of human Tie1 fused with the transmembrane and cytoplasmic domains of the mouse erythropoietin receptor. The nucleic acid used was a Tie1-EpoR chimeric cDNA in a pEF-BOS expression vector. The nucleic acid encoding the chimeric receptor was constructed by cloning the PCR amplified extracellular part of human Tie1 (bp 37-2316 of X60975) as EcoRI-BglII fragment into mEpoR-pcDNA vector. The cDNA encoding for the chimeric receptor consisting of the extracellular part of Tie1 fused with the transmembrane and intracellular domains of EpoR was subcloned into the pEF-BOS expression vector. Vector was linearized and co-transfected into BaF3 cells with pcDNA3.1(+) Zeo vector (Invitrogen). Stable cell pools were generated by selection with 250 μg/ml Zeocin. The expression of Tie1/EpoR fusion protein in several clones was analyzed by Western blotting with an antibody against EpoR.
To perform the assays, BaF3 cells expressing the Tie1-EpoR chimera were split in 96-well microtiter plates at 50 000 cells/well in the presence of the indicated concentrations of anti-Tie1 antibodies. The E3 antibody used in this study was the germ-lined E3 antibody (DX-2220). As controls, Zeocin resistant pools not expressing the Tie1-EpoR were used. After 48 h, the viability of the cells was determined by adding MTT (3-(4,5-dimethylthiazol-2-yl)-2,5-diphenyl tetrazolium bromide (Sigma), 0.5 mg/ml), followed by further 2 h of culture, addition of an equal volume of cell lysis solution (10% SDS, 10 mM HCl) and incubation overnight at 37° C. Absorbance was measured at 540 nm.
Stimulation and inhibition of Tie1 in Tie1-EpoR transfected BaF3 cells and human primary endothelial cells. Although no ligand for Tie1 has been identified, we used the following efficient screening method for Tie1-binding proteins. Interleukin-3 dependent pre-B-lymphocyte (BaF3) cells were transfected with a construct that expresses a Tie1-EpoR fusion protein. Since BaF3 cells are IL-3 dependent, they die unless IL-3 is provided. However, Tie-EpoR receptor expressing BaF3 cells can survive and proliferate if the medium contains a Tie1-binding protein, either a natural ligand or an artificial mimetic. Cell survival can be quantitated, e.g., by colorimetric MTT-assay, which measures mitochondrial activity.
To determine if any of the other monoclonal antibodies tested inhibit the survival effect of E3 IgG in Tie1-EpoR BaF3 assay, antibodies were studied in combination with E3 IgG. A concentration of 100 ng/ml of E3 IgG together with 100 (1:1) or 500 (1:5) ng/ml of the other antibodies were used and the viability of Tie1-EpoR cells was measured.

**Q.** How did the “effect on the survival effect of E3 IgG in Tie1-EpoR BaF3 assay” value (shortened to “effect on the survival effect of E3 IgG”) turn out when B1 was run?
**A.** Its value is “inhibited the viability effect of E3 IgG to some extent”.

**Q.** Which “effect on the survival effect of E3 IgG” value does the source give for B2 here?
**A.** The value was “inhibited the viability effect of E3 IgG to some extent”.

**Q.** Which “effect on the survival effect of E3 IgG” value does the source give for B3 here?
**A.** The value was “inhibited the viability effect of E3 IgG to some extent”.

**Q.** For B4, which “effect on the survival effect of E3 IgG” value is on record?
**A.** The value was “inhibited the viability effect of E3 IgG to some extent”.

**Q.** With B5 as the molecule, how does the “effect on the survival effect of E3 IgG” value read?
**A.** Its value is “inhibited the viability effect of E3 IgG to some extent”.

**Q.** Which “effect on the survival effect of E3 IgG” value does the source give for B6 here?
**A.** The value was “promoted the survival of Tie1/EpoR BaF3 cells in combination with E3 IgG”.

Molecular target: Tie1 (Homo sapiens, UniProt P35590)
Experiment: Competition with E3 for binding to Tie1
Conditions: not given

Chain of Tie1 (P35590 22-1138): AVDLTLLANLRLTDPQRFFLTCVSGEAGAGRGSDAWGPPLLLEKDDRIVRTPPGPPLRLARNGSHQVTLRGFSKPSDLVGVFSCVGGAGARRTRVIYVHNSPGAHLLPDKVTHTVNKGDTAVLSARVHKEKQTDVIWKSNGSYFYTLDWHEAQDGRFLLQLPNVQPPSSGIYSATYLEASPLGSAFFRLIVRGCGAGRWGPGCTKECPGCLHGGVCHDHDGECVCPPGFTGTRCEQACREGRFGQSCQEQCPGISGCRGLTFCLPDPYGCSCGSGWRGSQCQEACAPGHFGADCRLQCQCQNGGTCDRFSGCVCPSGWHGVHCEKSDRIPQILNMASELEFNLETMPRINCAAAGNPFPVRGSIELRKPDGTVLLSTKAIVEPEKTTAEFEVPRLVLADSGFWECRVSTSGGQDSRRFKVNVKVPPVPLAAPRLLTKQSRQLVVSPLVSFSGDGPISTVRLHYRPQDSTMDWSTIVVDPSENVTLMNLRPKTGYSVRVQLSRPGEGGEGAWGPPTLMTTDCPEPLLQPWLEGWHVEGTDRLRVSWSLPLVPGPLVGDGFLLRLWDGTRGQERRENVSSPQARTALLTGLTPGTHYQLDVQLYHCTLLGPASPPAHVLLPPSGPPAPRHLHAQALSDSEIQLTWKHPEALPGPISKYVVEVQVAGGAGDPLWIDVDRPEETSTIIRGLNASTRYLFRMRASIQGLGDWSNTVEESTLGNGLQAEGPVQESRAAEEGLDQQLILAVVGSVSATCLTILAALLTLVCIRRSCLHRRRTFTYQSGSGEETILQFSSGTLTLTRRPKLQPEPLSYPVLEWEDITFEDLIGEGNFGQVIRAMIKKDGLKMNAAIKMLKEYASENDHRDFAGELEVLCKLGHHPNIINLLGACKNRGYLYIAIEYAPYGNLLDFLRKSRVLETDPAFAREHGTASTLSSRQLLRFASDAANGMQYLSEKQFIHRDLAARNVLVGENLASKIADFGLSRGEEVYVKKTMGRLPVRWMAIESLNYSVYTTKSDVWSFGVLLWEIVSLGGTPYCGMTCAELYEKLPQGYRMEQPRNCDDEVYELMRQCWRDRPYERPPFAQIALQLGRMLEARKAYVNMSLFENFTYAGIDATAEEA

**Q.** B7 was tested. Which “competition with E3 for binding to Tie1” value did it give?
**A.** Its value is “competes with E3 for binding to Tie1”.

**Q.** B8 was tested. Which “competition with E3 for binding to Tie1” value did it give?
**A.** Its value is “competes with E3 for binding to Tie1”.

**Q.** For B9, which “competition with E3 for binding to Tie1” value is on record?
**A.** Its value is “competes with E3 for binding to Tie1”.

**Q.** How did the “competition with E3 for binding to Tie1” value turn out when B10 was run?
**A.** The value was “competes with E3 for binding to Tie1”.
